In the DeepSol protein solubility set:

Assay: soluble on expression in E. coli; label from the status in PepcDB or PDB records

Soluble on expression in E. coli, not soluble:
MGSDKIHHHHHHMDNVPEPSSEKFRAYRQKLLDQLETSSQGERHRAQYELELMRNSHFVKVGGLLHHYHDSGPENPRGTVLLIHGWDCWWMWWHRIIRELNAAGYRTVAYDMKGHGWSENDPENRYQIADFVRDLDELIRAIGLKDLHIAAFSFGPFVALDYVNTYPNSVRSMVFFNFGYLPNSEFISKVAPATIIFIFNIMMRKLTWWLPAYIFARLVLSRNSVMMHDIKVGFESLGFCASEAIEQTAQQITAMETTQMLPDMVRAVRVPILFAAGEGDVIMTCENARKLQEMTPSGSYLCVPDCGHLITLELPQTAAEIVLQHISSNS
MGSDKIHHHHHHMDSSCSPKHGWFDSVAESYAQQRPYYPESLFTWISSKAASHQRCWDVACGSGQASLGLARHFDRVDASDLSPAQVAAAPAHSNIHYQVAAAEDSGFPNACMDAIVVAAAIHWLDVPRFNEEALKVARPGGLMVWVGYDPPQGAPPALQLWLDQLYSERLSSWWPPQRHHVDNHYQNLPFPTISKTLPQELCISLKWSCEQLIGYIGTWSALRKATQEGHDLLPQLSMELQRLWPADQKTIPLIFPLMGRWGYLAR
MGSDKIHHHHHHMDTKAFKRSLQHSENYNRKGFGHQAEVATQLQSEYQSNLIQEIRDRNYILQRGDVTIRLAQAFGFCWGVERAVAMAYETRQHFPTEHIWITNEIIHNPSVNQRMQEMEVEFIPIEGKNKDFSVVGTGDVVILPAFGASVQEMQILHDKGCKIVDTTCPWVSKVWNTVEKHKKIDYTSIIHGKYKHEETVATSSFAGKYLIVLNLQEAQYVADYIINGGNREEFLTKFAKACSAGFDPDRDLERVGIANQTTMLKDETEQIGKLFERTMLQKYSPIELNQHFQSFNTICDATQERQDAMLELVEHNLNLMVVIGGFNSSNTTQLQQIAFERRIPSYHIDTVERIKSGDSIEHRQLNGQLITTENWLPDGEIVVGITSGASTPDKVVEDVIEKIFAVKATAALV
MGSDKIHHHHHHMDVIFSIFLETFGDPIGQQPVPPAAVDHYQGKLPNRLLEYWQDHGWCGYGGGLFWLVNPQEYQGVVASWLAGTHFEACDTYHLIARSAFGDLYLWGEKTGSVLTIAAYHSRYLDGAHSSGDEERDNKIHGLLMWLMTECVYFDDLFEPARERLGTLGSDEMYGFVPALMLGGPDSLERLEKLKAVEHLVLLSQLSELEPYELTGEEDE
MGSDKIHHHHHHMEFSQLRIFQAVAEEGSVTRAAERLHRVPSNLSTRLRQLEEQLGVELFLRERQRLQLSPAGKVLLDYANRMSALRDEALGAVRGGQPAGDFVLGTMYSTAATHLPALLARYHQSYPQVNLQVRAAPSGELLEGLLNHTLDAALVDGPPSLAGLDGVPLCDEQLVLITSPEHPAVLTAKDVAGKAVFTFRQGCSYRMRLEAWYAHAHTPMGRVMEIESYQSMLACVIAGAGVAMMAQSMLDSLPGRDRVRVHSLQAPFDQAVTWLMWRQGMRGANLQAWIDLQQSETINQSSECAATA
MGSDKIHHHHHHMEGRINPENWKDIFSDTLYIITDPNGVTAVIPEETAKTASSEPVKAAPADIKPTPVTTATPALPKIPSIPTPASATPNQQPAPVAAATAVLKPAGKYSNGILILMHVSYTMTPAQQEMLGKIVKAVQLDYNECGVLQVSAPVSLKEIETLKPRIVLSFGLPTDAFEPRMTKDLYSIQKHNSTIMLLADSLAKLETTVALKSNLWNAMKEMFGIK
MGSDKIHHHHHHMEILQRQLLFKLAVCQGIGNLGILKVLQEAIAQKRVDFSSTEIIRIAEIKKYRELFEQSWLHHTIHSEALYIRQCQHQFMTILDAVYPKLLREIYNPPAILFYRGNLQLLSRRKIGIVGARYATSYGLRVTEALVPKIVKEGFTIVSGLAKGIDSRSHEMAIQNGGQTIGILGTGLDVYYPYEKKELQQTMKQNQLVLTEYVNGSGPKKYHFPARNRIIAGLSLGVCVMEARKNSGSLITAQAAMDYGREVFAVPGSIFQSFSTGCHELIQDGAKCVQTIDDICEEL
MGSDKIHHHHHHMEKEFRILNIVSAKIWGGGEQYVYDVSKALGLRGCTMFTAVNKNDELMRRRFSEVSSVFTTRLHTFNGLFSLYALTRFIRENHISHLMIHTGKIAALSVLLKKLTGVRLIFVKHNVVANKTDFYHRLIQKNTDRFICVSRLVYDVQTADNPFKEKYRIVHNGIDTGRFPPSQEKPDSRFFTVAYAGRISPEKGLENLIEACVILHRKYPQIRLKLAGHGHPDYMCRLKRGVSASGAEPFVSFEGFTEKLASFYRQSDVVVLPSLVPEAFGLSLCEAMYCRTAVISNTLGAQKEIIEHHQSGILLDRLTPESLADEIERLVLNPEAKNALATAGHQCVAARFTINHTADKLLDAI
MGSDKIHHHHHHMEKEMLTFDITNDFIVGDRITKETLNKYSKLPHKIKAGLFLLCVEGSVQASINLAKYTINKYDFVTLVPSNFIQFHEISDDARFYFAGFSSEFMTNINFIKSTMSFLPVITEHPIMPLEESVAQLYIDGYRLLIRAQSLSPSYSMVNKNLVIAYLTIFMQGTAELYKNHSHWTNGIRTRTNEIYRKFIQLVVEHYTTEHSVSFYAAQLNLSLPHFCTTIKKAIGLTPLEIISSIITMDAKAQLRSTDLTVKEIAFSLGFNNLSFFNKYFRQHTGMTPQEYRRMKIPSST
MGSDKIHHHHHHMEKLKLMTIVGTRPEIIRLSSTIKACDQYFNQILVHTGQNYDYTLNQIFFDDLELRQPDHYLEAVGSNLGETMGNIIAKTYDVLLREQPDALLILGDTNSCLAAVSAKRLKIPVFHMEAGNRCFDQNVPEEINRKIVDHVSDVNLPYTEHSRRYLLDEGFNKANIFVTGSPMTEVIEAHRDKINHSDVLNKLGLAPAAYILVSAHREENIDNEKNFKSLMNAINDIAKKYKMPVIYSTHPRSWKKIEESKFEFDPLVKQLKPFGFFDYNALQKDAFVVLSDSGTLSEESSILKFPGVLIRTSTERPEVLDKGTVIVGGITYNNLIQSVELAREMQNNNEPMIDAIDYKDTNVSTKVVKIIQSYKDIINRNTWRK
MGSDKIHHHHHHMEKQKEVQKEYEEYQYMLDTETWKKELSQFKLSSSEKISKNPKVSIIIANYNNAPYLKKMMDSLVQQTIGIEQLQVMFIDDCSTDHSLKVIEPYLERYPNIEIYQLLENTGGAHGPRNVGIVNARGEYSVFLDADDWYDLNALKYLSDLLDDSHDDFAVSGLIQSTDGHLMLKSKPYYVDGSFKNRSIQELPAEFYGWLGPQAIMLRTSLIHNNNLHFVNQRVADDVLFFYEAMRFSKTITQGERLTTYLNRDADNESLSKSINRTFMLSWLRALSYINQQFPDDLSKERMLARRLEWLIYDFCIRRNTGYPFSKRRLQDFKVQMDQYLGELNFDPSPYFRSDVRQIIWTFLQTNDIDGLYWFIQCQSIRWVLVNRFGYVSKTERSYYYPRLLKRFPAVRMNAYAEATQREGNTLSLNVYTHQKITGFEIKELKNPFETRQRLAFKKISETSYQVELPEKFSNKESRFTIVFDNYLEIGVKDFSKFFA
MGSDKIHHHHHHMEKRYQIFISSTFIDLKDERQAALKAILEIDHMPAGMELFSATDDSAWQLIQDVIDSSDYYILIVGGRYGSLDEAGLSYTEKEYDYALLTKKPVIPLLHENPDNLPRDKTETDSNAWKKLQDFRKKVQKKHTCVYWRNADDLKAKVIVGLTSAIKRHPAVGWVRADKVPTETALAEVLSLKNKITELEKEAALLRDKPPSGTEFLAQGNDKYEIHLSFKSRGKFSIFSHDEDKKYNASINLTWNAIFAAVAPSMINEASAHTLRQAFTDFFKRESLKAFQSQKRFENYELVDFSFHKDEIETCIVQLRALGLIKENDRKRSVSDTSTYWTLTPYGNTLMVQLRAIKREPLEDEDLDGTAVES
